The target of experiment [1] is SecA^A795C-FL (SecA with a fluorescein label at position 795 on the tip of the two-helix finger) (E. coli) (UniProt P10408). The experiment in a line: other fluorescence titration; as a1 (10 nM SecA*, TSG buffer, 0.02% DDM, 2 mM MgCl2, 1 mM AMPPNP) with SecYLGEG pre-incubated with 100 mM DTT.
For experiment [2] the target is unchanged. The experiment in a line: other fluorescence titration; 10 nM SecA* fixed, SecYEG varied; quenching of the fluorescein on SecA*; TSG buffer (20 mM Tris pH 7.5, 130 mM NaCl, 10% glycerol) with 0.02% DDM, 2 mM MgCl2, 1 mM AMPPNP; no DTT; fitted to a tight binding equation.

In turn, “SecYLGEG pre-incubated with 100 mM DTT (disulphide between S87C and F286C of SecY reduced) (from UniProt P0AGA2 1-443; P0AG96 1-127; P0AG99 1-110) (complex)” yielded a Kd in experiment [1] of 19 nM.
For the substance “SecYLGEG, oxidised (SecYEG with the lateral gate closed by a disulphide bond between S87C and F286C of SecY) (from UniProt P0AGA2 1-443; P0AG96 1-127; P0AG99 1-110) (complex)”, in experiment [2], the equilibrium dissociation constant (Kd) came to 41 nM.

As usually defined, the Kd is the equilibrium constant for the complex coming apart. A lower Kd goes with tighter binding.

(Values after article PMC4907695.)
